Data: publication PMC5320947 (Angewandte Chemie (International ed. in English), 2016)

Columns and labels:
[1] = test system: fed blood glucose levels in C57BL/6J mice; type: in vivo
[2] = set-up: species or system mice; conditions: mouse, in vivo

Row | Substance | duration of blood glucose reduction after a single s.c. injection [1] | area under the curve (AUC) [2] [%h/mL] | terminal elimination phase T1/2β [2] [h] | total body clearance (CL) rate [2] [mL/h]
1 | exendin–C–PMPC75k: exendin–4 C–terminal conjugate with zwitterionic PMPC, larger conjugate | up to 3 days |  |  | 
2 | green fluorescent protein [native GFP] |  | 14 | 4 | 7
